We go through 1 substance from doi:10.1101/323055.

The assay deals with TmFtsH_(184,513), double Cys variant of His6-(Δtm)TmFtsH(147–610) (Thermotoga maritima) (UniProt Q9WZ49).

For orientation: Kd means the constant that tells how readily two partners part at equilibrium. Turning to “TmFtsH_(184,513), double Cys variant of His6-(Δtm)TmFtsH(147–610) (from UniProt Q9WZ49 147-610) (enzyme)”, the Kd was found to be 400 nM.
